Read-outs that look alike come from different tables or passages of the source.
Columns and labels:
[1] = for half-life / microsomal CLint: liver microsomes; for Microsome-Predicted EH: hepatic extraction ratio
Method: Performed by CDCO, Monash University, Australia.
The metabolic stability assay was performed by incubating each test compound (1 μM) with human (Xenotech, Lot #1210057) and mouse (Xenotech, Lot #1110071) liver microsomes at 37 °C and 0.4 mg mL^−1 protein concentration. The metabolic reaction was initiated by the addition of a nicotinamide adenine dinucleotide phosphate (NADPH)-regenerating system (i.e. NADPH is the cofactor required for cytochrome P450-mediated metabolism) and quenched at various time points over the 60 min incubation period by the addition of acetonitrile. Control samples (containing no NADPH) were included (and quenched at 2, 30 and 60 min) to monitor for potential degradation in the absence of cofactors. Concentrations of each test compound in quenched samples were determined by ultra performance liquid chromatography mass spectrometry (UPLC-MS) (Waters/Micromass Xevo triple quadrupole mass spectrometer). […] In addition, glucuronidation was not considered in this study and may require further assessment using alternative test systems.
Test compound concentration vs. time data were fitted to an exponential decay function to determine the first-order rate constant for substrate depletion. In cases where clear deviation from first-order kinetics was evident, only the initial linear portion of the profile was utilised to determine the degradation rate constant (k). Each substrate depletion rate constant was then used to calculate: (1) a degradation half-life, where t 1/2 = ln(2) k ^−1; (2) an in vitro intrinsic clearance value, where CLint,in vitro = k [microsomal protein content (0.4 mg mL^−1)]^−1; (3) a predicted in vivo hepatic intrinsic clearance value, where CLint = CLint,in vitro × [liver mass (g)/body weight (kg)] × [microsomal protein (mg) / liver mass (g)]; and (4) a predicted in vivo hepatic extraction ratio, where E H = CLblood Q ^−1 = Clint [Q + Clint]^−1.
Scaling parameters assumed were: human liver mass 20 g liver / kg body weight, human microsomal protein 40 mg g^−1 liver mass[49], [50], human hepatic blood flow (Q) 20.7 mL min^−1 kg body weight^−1 [51], mouse liver mass 87.5 g liver / kg body weight, mouse microsomal protein 45 mg g^−1 liver mass[51], mouse hepatic blood flow (Q) 90 mL min^−1 kg body weight^−1 [51].

[2] = test system: bioluminescent MSSA Xen-29; experiment: Bioluminescence IP infection in vivo model (neutropenic mice); set-up: species or system Staphylococcus aureus; settings: SC: 200 mg kg^−1 vancomycin, 50 mg kg^−1 daptomycin, 25 mg kg^−1 19 or 24
Method: Performed at the University of Queensland, following similar previous literature procedures. Xen-29 (Caliper LifeSciences), a methicillin-sensitive S. aureus (MSSA) strain which contains a copy of the modified luxABCDE operon of Photorhabdus luminescens was taken from the storage at −80 °C and freshly seeded on agar plates for overnight growth at 37 °C. From the overnight culture preparation, a single colony (tested for bioluminescence) was diluted into 10 mL of MHB and incubated overnight at 37 °C. A mid log-phase subculture was obtained by adding 100 μL of overnight subculture in 10 mL MHB and incubated for a further 2–3 h. Finally, the OD600 value of the bacterial suspension was determined and the colony forming units per millilitre (CFU mL^−1) was extrapolated. The suspension was then diluted out accordingly in order to achieve a 2.5 × 10^8 CFU mL^−1 solution (2.5 × 10^7 CFU in 100 μL). […] Mice were monitored for signs of normal behaviour (i.e. grooming, eating, drinking, sleeping and alertness) during and following dosing. […] Xen-29 colonies were then counted, with the CFU mL^−1 blood calculated. […] Luminescent images were quantified with the IVIS Living Image software where the total flux (number of photons/second) was calculated by a user defined region of interest (ROI) covering the infection sites.

S. aureus ATCC 43300 = experiment: Membrane depolarisation assay (diSC3(5)); type: cell-based, Staphylococcus aureus; settings: 16 µg mL^−1, 30 min, MRSA ATCC 43300
Method: Antibiotic-induced bacterial cytoplasmic membrane depolarisation was determined using the fluorescent dye 3,3-dipropylthiacarbocyanine diSC3(5) (Sigma Aldrich, Australia) as previously described. Briefly, early exponential phase cells were pelleted and washed twice in 10 mM HEPES buffer (pH 7.4) containing 50 µg mL^−1 of CaCl2 and 5 mM Glucose, and then re-suspended in the same buffer (2 × 10^8 CFU mL^−1). diSC3(5) was added to a final concentration of 1.5 µM and incubated at room temperature in the dark to enable dye uptake and fluorescence quenching. After 30 min, cells were diluted 50-fold in assay buffer and 45 µL of cells were added to a 384-well black walled polystyrene plate (Corning, CLS3573) (Note: NBS plates were not employed, and no polysorbate-80 was added to avoid potential effects on membrane permeability, or interference with fluorescence as previously reported. The MICs of compounds in polystyrene plates are listed in Supplementary Table 12). Background data was collected before adding compounds using a Tecan Infinite® m1000 Pro Multi-mode reader (excitation/emission 612/665 nm) to ensure fluorescence quenching. Compounds were added to a final concentration of 16 µg mL^−1 and fluorescence was monitored for 30 min. Data were corrected by subtraction of background response (diSC3(5) in the presence of untreated cells, no compound). […] Each sample was tested in quadruplicate and independent assays were performed twice showing similar results. Data were analysed and presented using Prism software.

[3] = cited from earlier work; for log decrease: CAMHB with polysorbate-80; for log reduction from initial inoculum: nutrient-depleted media, ref Belley AAC 2009 53, 918

Row | SMILES | half-life ([1]; human) | microsomal CLint ([1]; human) | Microsome-Predicted EH ([1]; human) | half-life ([1]; mouse) | microsomal CLint ([1]; mouse) | Microsome-Predicted EH ([1]; mouse) | Change in bioluminescence signal (total flux) after inoculation [2] | Dissipation of membrane potential (diSC3(5) fluorescence) (S. aureus ATCC 43300) | also measured
1 | CCCCCCCCCCC(=O)N[C@@H](CCCCN)C(=O)N[C@@H](CCCCN)C(=O)N[C@@H](CCCCN)C(=O)N[C@@H](CCCCNC(=O)[C@H]1NC(=O)[C@H]2NC(=O)[C@H](NC(=O)[C@@H]3NC(=O)[C@H](CC(N)=O)NC(=O)[C@H](NC(=O)[C@@H](CC(C)C)NC)[C@H](O)c4ccc(c(Cl)c4)Oc4cc3cc(c4O[C@@H]3O[C@H](CO)[C@@H](O)[C@H](O)[C@H]3O[C@H]3C[C@](C)(N)[C@H](O)[C@H](C)O3)Oc3ccc(cc3Cl)[C@H]2O)c2ccc(O)c(c2)-c2c(O)cc(O)cc21)C(=O)O [Compound 18, nC10CO-KKK-K(Vancomycin)-OH] | > 4.17 h | < 7 µL/min/mg | < 0.23 | 3.93 h | 7 µL/min/mg | 0.24 |  |  | 
2 | CCCCCCCCCCC(=O)N[C@@H](CCCCN)C(=O)N[C@@H](CCCCN)C(=O)N[C@@H](CCCCNC(=O)[C@H]1NC(=O)[C@H]2NC(=O)[C@H](NC(=O)[C@@H]3NC(=O)[C@H](CC(N)=O)NC(=O)[C@H](NC(=O)[C@@H](CC(C)C)NC)[C@H](O)c4ccc(c(Cl)c4)Oc4cc3cc(c4O[C@@H]3O[C@H](CO)[C@@H](O)[C@H](O)[C@H]3O[C@H]3C[C@](C)(N)[C@H](O)[C@H](C)O3)Oc3ccc(cc3Cl)[C@H]2O)c2ccc(O)c(c2)-c2c(O)cc(O)cc21)C(=O)O [Compound 19, nC10CO-KK-K(Vancomycin)-OH] | > 4.17 h | < 7 µL/min/mg | < 0.23 | > 4.17 h | < 7 µL/min/mg | < 0.23 |  |  | 
3 | CN[C@H](CC(C)C)C(=O)N[C@H]1C(=O)N[C@@H](CC(N)=O)C(=O)N[C@H]2C(=O)N[C@H]3C(=O)N[C@H](C(=O)N[C@H](C(=O)O)c4cc(O)cc(O)c4-c4cc3ccc4O)[C@H](O)c3ccc(c(Cl)c3)Oc3cc2cc(c3O[C@@H]2O[C@H](CO)[C@@H](O)[C@H](O)[C@H]2O[C@H]2C[C@](C)(N)[C@H](O)[C@H](C)O2)Oc2ccc(cc2Cl)[C@H]1O [Compound 1, Vancomycin] |  |  |  |  |  |  | progressive reduction in the bioluminescence signal | no effect | 
4 | CCCCCCCCCC(=O)N[C@@H](Cc1c[nH]c2ccccc12)C(=O)N[C@H](CC(N)=O)C(=O)N[C@@H](CC(=O)O)C(=O)N[C@@H]1C(=O)NCC(=O)N[C@@H](CCCN)C(=O)N[C@@H](CC(=O)O)C(=O)N[C@H](C)C(=O)N[C@@H](CC(=O)O)C(=O)NCC(=O)N[C@H](CO)C(=O)N[C@@H]([C@H](C)CC(=O)O)C(=O)N[C@@H](CC(=O)c2ccccc2N)C(=O)O[C@@H]1C [Compound 4, Daptomycin] |  |  |  |  |  |  | progressive reduction in the bioluminescence signal | no effect | 
5 | CN[C@H]1C(=O)N[C@@H]2Cc3ccc(cc3)Oc3cc4cc(c3O[C@@H]3O[C@H](C(=O)O)[C@@H](O)[C@H](O)[C@H]3NC(=O)CCCCCCCCC(C)C)Oc3ccc(cc3Cl)[C@@H](O)[C@@H]3NC(=O)[C@H](NC(=O)[C@@H]4NC(=O)[C@@H](NC2=O)c2cc(cc(O)c2Cl)Oc2cc1ccc2O)c1ccc(O)c(c1)-c1c(O[C@H]2O[C@H](CO)[C@@H](O)[C@H](O)[C@@H]2O)cc(O)cc1[C@@H](C(=O)NCCCN(C)C)NC3=O [Compound 3, Dalbavancin] |  |  |  |  |  |  |  | no effect | log reduction ([3]; 32 µg mL-, 24h, ref Belley AAC 2016 60 4342): 3 log
6 | CN[C@H](CC(C)C)C(=O)N[C@H]1C(=O)N[C@@H](CC(N)=O)C(=O)N[C@H]2C(=O)N[C@H]3C(=O)N[C@H](C(=O)N[C@H](C(=O)O)c4cc(O)cc(O)c4-c4cc3ccc4O)[C@H](O[C@H]3C[C@](C)(N)[C@@H](O)[C@H](C)O3)c3ccc(c(Cl)c3)Oc3cc2cc(c3O[C@@H]2O[C@H](CO)[C@@H](O)[C@H](O)[C@H]2O[C@H]2C[C@](C)(NCc3ccc(-c4ccc(Cl)cc4)cc3)[C@@H](O)[C@H](C)O2)Oc2ccc(cc2Cl)[C@H]1O [Compound 5, Oritavancin, reference compound] |  |  |  |  |  |  |  |  | log decrease ([3]; 4 µg mL-, 1h, ref Belley AAC 2016 60 4342): 4.5 log; log decrease ([3]; 4 µg mL-, 1h, ref Mckay, J Antimicrob Chemother 2009, 63 1191): 4.5 log; log reduction from initial inoculum ([3]; 4 µg mL-): 3 log; log decrease ([3]; 16 µg mL-, 30 min, ref Belley AAC 2016 60 4342): 4.5 log; log reduction from initial inoculum ([3]; 16 µg mL-, 3h, no polysorbate-80): approximately 4 log

From article PMC5750218, “Protein-inspired antibiotics active against vancomycin- and daptomycin-resistant bacteria” (Nature Communications, 2018)
